For test [1], the target named is aggregated (oligomeric) P301S 2N4R tau, pHrodo-labelled (human) (UniProt P10636). As to the kind of experiment: cell-based or functional assay.
The target in test [2] is monomeric P301S 2N4R tau, pHrodo-labelled (human) (UniProt P10636). As to the kind of experiment: cell-based or functional assay.
Sequence of monomeric P301S 2N4R tau, pHrodo-labelled (human) (P10636 other isoform, or with tags, fused parts or gaps P301S P301S): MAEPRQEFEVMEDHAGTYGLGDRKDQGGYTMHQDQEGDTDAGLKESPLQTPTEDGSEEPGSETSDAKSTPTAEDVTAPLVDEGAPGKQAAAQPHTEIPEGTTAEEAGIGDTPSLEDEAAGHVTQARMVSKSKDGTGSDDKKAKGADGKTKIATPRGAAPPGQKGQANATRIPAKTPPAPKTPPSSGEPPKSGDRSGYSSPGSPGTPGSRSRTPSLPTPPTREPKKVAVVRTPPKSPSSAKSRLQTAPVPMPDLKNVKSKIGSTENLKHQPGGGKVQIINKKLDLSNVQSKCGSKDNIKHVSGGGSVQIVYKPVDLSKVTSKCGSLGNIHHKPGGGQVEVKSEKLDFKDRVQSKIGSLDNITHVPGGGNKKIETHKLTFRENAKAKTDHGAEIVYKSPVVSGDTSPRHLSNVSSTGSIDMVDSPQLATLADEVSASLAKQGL

Sequence of aggregated (oligomeric) P301S 2N4R tau, pHrodo-labelled (human) (P10636 other isoform, or with tags, fused parts or gaps P301S P301S): as above

Consider “isotype control human IgG1 (anti-fluorescein, Absolute Antibody)”, for which the inhibition of aggregated tau uptake into human iPSC-derived neurons in test [1] turned out to be 14.3%. In test [2], the inhibition of monomeric tau uptake into human iPSC-derived neurons was determined as 6.2%.

The values above are taken from patent US20250270301A1.
